Key:
Experiment in all cases: SPR
Recombinant B7-H4 [1] = molecular target: T1, Recombinant B7-H4 (UniProt Q7Z7D3 25-259, N-glycans, including high mannose glycans through which PFL binds)
T1 chain: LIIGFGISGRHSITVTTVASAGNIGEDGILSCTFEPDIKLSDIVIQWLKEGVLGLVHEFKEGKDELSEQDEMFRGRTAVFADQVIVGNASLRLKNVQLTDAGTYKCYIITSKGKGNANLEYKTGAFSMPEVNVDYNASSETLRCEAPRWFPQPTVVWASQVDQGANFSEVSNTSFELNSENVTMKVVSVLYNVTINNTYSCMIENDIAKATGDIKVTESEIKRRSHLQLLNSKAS

[2] = molecular target: T2, Recombinant integrin αvβ3 (UniProt P06756 31-1048; P05106 27-718)
T2 chain 1: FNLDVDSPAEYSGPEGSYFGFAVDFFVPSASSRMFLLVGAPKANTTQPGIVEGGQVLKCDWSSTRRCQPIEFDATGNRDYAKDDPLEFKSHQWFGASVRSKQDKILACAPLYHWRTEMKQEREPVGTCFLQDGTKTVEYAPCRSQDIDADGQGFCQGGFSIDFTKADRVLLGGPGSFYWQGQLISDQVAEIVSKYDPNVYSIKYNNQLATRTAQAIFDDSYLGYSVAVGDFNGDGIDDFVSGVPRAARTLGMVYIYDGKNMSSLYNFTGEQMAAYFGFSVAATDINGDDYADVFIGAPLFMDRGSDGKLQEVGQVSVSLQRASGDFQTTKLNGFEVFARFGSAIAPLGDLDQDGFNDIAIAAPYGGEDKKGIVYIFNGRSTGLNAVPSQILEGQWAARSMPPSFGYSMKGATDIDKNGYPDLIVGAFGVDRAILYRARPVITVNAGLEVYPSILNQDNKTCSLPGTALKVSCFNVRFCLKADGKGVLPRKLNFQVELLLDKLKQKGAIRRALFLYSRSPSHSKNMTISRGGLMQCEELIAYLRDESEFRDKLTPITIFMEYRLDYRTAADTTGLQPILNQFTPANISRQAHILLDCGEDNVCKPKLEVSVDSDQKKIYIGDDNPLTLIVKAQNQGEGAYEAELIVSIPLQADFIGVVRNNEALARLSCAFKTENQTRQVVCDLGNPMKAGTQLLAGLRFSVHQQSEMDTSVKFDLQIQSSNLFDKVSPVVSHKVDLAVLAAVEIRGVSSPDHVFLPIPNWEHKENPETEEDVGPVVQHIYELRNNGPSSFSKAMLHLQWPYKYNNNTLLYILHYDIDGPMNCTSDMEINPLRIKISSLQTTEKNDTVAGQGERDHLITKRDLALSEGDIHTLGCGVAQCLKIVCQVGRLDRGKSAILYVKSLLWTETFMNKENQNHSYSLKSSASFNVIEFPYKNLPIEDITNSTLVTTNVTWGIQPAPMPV
T2 chain 2: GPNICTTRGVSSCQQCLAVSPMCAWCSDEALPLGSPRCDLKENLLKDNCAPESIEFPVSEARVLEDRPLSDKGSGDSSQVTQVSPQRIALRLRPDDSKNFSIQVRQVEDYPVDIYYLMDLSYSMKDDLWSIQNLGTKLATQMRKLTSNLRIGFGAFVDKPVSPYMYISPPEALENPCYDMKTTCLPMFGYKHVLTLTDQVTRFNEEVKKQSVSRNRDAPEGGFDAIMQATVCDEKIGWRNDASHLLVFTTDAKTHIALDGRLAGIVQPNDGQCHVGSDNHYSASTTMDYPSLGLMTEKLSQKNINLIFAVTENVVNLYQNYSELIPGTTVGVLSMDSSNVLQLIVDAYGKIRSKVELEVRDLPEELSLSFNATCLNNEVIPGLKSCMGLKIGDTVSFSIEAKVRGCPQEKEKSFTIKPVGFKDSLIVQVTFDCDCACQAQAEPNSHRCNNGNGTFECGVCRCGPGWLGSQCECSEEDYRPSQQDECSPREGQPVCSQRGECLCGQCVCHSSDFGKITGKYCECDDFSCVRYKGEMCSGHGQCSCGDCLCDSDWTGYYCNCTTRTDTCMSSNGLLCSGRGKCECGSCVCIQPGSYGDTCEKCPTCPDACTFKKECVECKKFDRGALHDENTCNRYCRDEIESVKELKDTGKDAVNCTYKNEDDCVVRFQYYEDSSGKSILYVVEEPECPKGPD

Recombinant B7-H4 [3] = molecular target: T1, Recombinant B7-H4
[4] = molecular target: T2, Recombinant integrin αvβ3

B1: Pseudomonas fluorescens lectin (PFL) (natural protein)
chain: MSKYAVANQWGGSSAPWHPGGTWVLGARDNQNVVAIEIKSGDGGKSFTGTMTYAGEGPIGFKAQRTGQNQYNVENQWGGNDAPWHPGGKWVIGGRDNQNVIALSVTSSDGGKNLSGTNTYANEGPIGFRGQIE
For B1, the koff (Recombinant B7-H4 [1]) was 0.00043 s⁻¹, the koff [2] was 8.69e-06 s⁻¹ and the Kd (Recombinant B7-H4 [3]) was 5.35 nM. The Kd [4] was 1.65 nM.
